Source: patent US12723106 (dated 2026)
Where two headings read alike, the source gives them in different places. One block for each binder: values may come before it.

Assays:
[1] = target: T1, human IL4 (human, UniProt P05112); experiment: SPR
T1 chain: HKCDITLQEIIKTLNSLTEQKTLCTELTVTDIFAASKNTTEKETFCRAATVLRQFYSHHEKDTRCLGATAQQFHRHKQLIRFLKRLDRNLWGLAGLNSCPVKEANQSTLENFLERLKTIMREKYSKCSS

[2] = target: T1, human IL4; experiment: SPR

B1: sLC-Tandem-(anti-IL4xanti-IL13)-ΔPCL1-huIgG1, IL4 arm (antibody)
chain 1: not shown
chain 2: DIQMTQSPASLSVSVGDTITLTCHASQNIDVWLSWFQQKPGNIPKLLIYKASNLHTGVPSRFSGSGSGTGFTLTISSLQPEDIATYYCQQAHSYPFTFGGGTKLEIKRTVAAPSVFIFPPSDEQLKSGTASVVCLLNNFYPREAKVQWKVDNALQSGNSQESVTEQDSKDSTYSLSSTLTLSKADYEKHKVYACEVTHQGLSSPVTKSFNRGEC
Kd [1]: 2.29 pM | Kd [2]: 2.75 pM

B2: sLC-Tandem-(anti-IL4xanti-IL13)-His8-PCL1-huIgG1 with Furin, IL4 arm (antibody)
chain 1: not shown
chain 2: DIQMTQSPASLSVSVGDTITLTCHASQNIDVWLSWFQQKPGNIPKLLIYKASNLHTGVPSRFSGSGSGTGFTLTISSLQPEDIATYYCQQAHSYPFTFGGGTKLEIKRTVAAPSVFIFPPSDEQLKSGTASVVCLLNNFYPREAKVQWKVDNALQSGNSQESVTEQDSKDSTYSLSSTLTLSKADYEKHKVYACEVTHQGLSSPVTKSFNRGEC
Kd [1]: 1.53 pM

B3: Tandem-(anti-IL4xanti-IL13)-huIgG1, IL4 arm (antibody)
chain 1: not shown
chain 2: DIQMTQSPASLSVSVGDTITLTCHASQNIDVWLSWFQQKPGNIPKLLIYKASNLHTGVPSRFSGSGSGTGFTLTISSLQPEDIATYYCQQAHSYPFTFGGGTKLEIKRTVAAPSVFIFPPSDEQLKSGTASVVCLLNNFYPREAKVQWKVDNALQSGNSQESVTEQDSKDSTYSLSSTLTLSKADYEKHKVYACEVTHQGLSSPVTKSFNRGEC
Kd [1]: 2.32 pM

B5: sLC-Tandem-(anti-IL4xanti-IL13)-His8-PCL1-huIgG1 with Furin-KDEL, IL4 arm (antibody)
chain 1: not shown
chain 2: DIQMTQSPASLSVSVGDTITLTCHASQNIDVWLSWFQQKPGNIPKLLIYKASNLHTGVPSRFSGSGSGTGFTLTISSLQPEDIATYYCQQAHSYPFTFGGGTKLEIKRTVAAPSVFIFPPSDEQLKSGTASVVCLLNNFYPREAKVQWKVDNALQSGNSQESVTEQDSKDSTYSLSSTLTLSKADYEKHKVYACEVTHQGLSSPVTKSFNRGEC
Kd [1]: 1.86 pM

Stronger by Kd [1], values ahead:

Kd [1]: 1.05 pM | Kd [2]: 1.33 pM
B6: sLC-Tandem-(anti-IL4xanti-IL13)-PCL2-huIgG1, IL4 arm (antibody)
chain 1: not shown
chain 2: DIQMTQSPASLSVSVGDTITLTCHASQNIDVWLSWFQQKPGNIPKLLIYKASNLHTGVPSRFSGSGSGTGFTLTISSLQPEDIATYYCQQAHSYPFTFGGGTKLEIKRTVAAPSVFIFPPSDEQLKSGTASVVCLLNNFYPREAKVQWKVDNALQSGNSQESVTEQDSKDSTYSLSSTLTLSKADYEKHKVYACEVTHQGLSSPVTKSFNRGEC

Kd [1]: 0.901 pM | Kd [2]: 1.42 pM
B4: sLC-Tandem-(anti-IL4xanti-IL13)-PCL1-huIgG1, IL4 arm (antibody)
chain 1: not shown
chain 2: DIQMTQSPASLSVSVGDTITLTCHASQNIDVWLSWFQQKPGNIPKLLIYKASNLHTGVPSRFSGSGSGTGFTLTISSLQPEDIATYYCQQAHSYPFTFGGGTKLEIKRTVAAPSVFIFPPSDEQLKSGTASVVCLLNNFYPREAKVQWKVDNALQSGNSQESVTEQDSKDSTYSLSSTLTLSKADYEKHKVYACEVTHQGLSSPVTKSFNRGEC
